The values below come from PMC4731797.

This experiment concerns the target E. coli 70S ribosome (E. coli (endogenous in MRE600)) (UniProt P0AG67). The experiment can be described thus: co-purification with ribosomes isolated from cell extract; 70S ribosomes from E. coli MRE600, low salt wash (0.75 M NH4Cl; 0.6 M for 2D-PAGE); 12% SDS-PAGE and 2D-PAGE, MALDI-TOF/TOF mass spectrometry, western blot with anti-AdhE; occupancy from band intensities with L2 as 100%. Background: Immunoblotting shows a protein as a band on a membrane.

With “aldehyde-alcohol dehydrogenase E (AdhE), co-purified with the E. coli 70S ribosome (from UniProt P0A9Q7 1-891) (natural protein)”, the occupancy is 50%.
As for “outer membrane protein C (OmpC), co-purified with the E. coli 70S ribosome (from UniProt P06996 22-367) (natural protein)”, the occupancy was 60%.
